Source: PMC10019796

Target: mtDsbC-SARS-CoV-2 RBD wild type fusion protein (SARS-CoV-2) (UniProt P0DTC2)
Assay: BLI; biotinylated mtDsbC-RBD (20 µg/mL) immobilised on streptavidin (SA) biosensors, Fabs as analytes at three nanomolar concentrations; Octet RED384, 30 °C, 1000 rpm, 1 × PBS Kinetics Buffer; 1:1 interaction model, global fit

## REGN10987 (L93Q) Fab
  Kd: > 1 µM
